{
  "source": "patent US20050064518A1",
  "about": "(PURDUE PHARMA L P, published 2005)",
  "binders": {"B1": {"name": "monoclonal antibody 117.1 (antibody, V domains shown)", "VH": "QVTLKESGPGILQPSQTLSLTCSFSGFSLSTPGMGVGWIRQPSGKGLEWLAHIWWDDFKRDNPALKSRLTISKDTSSSQVFLKIASVDTADTATYYCVRVDGNFLSWYFDVWGAGTTVTVSS", "VL": "DAVMTQTPLSLPVSLGDQASISCRSSQSLVHSNGNTYLHWYLQKPGQSPKLLIYKVSNRFSGVPDRFSGSGSGTDFTLRISRVEAEDLGVYFCSQSRYVPWTFGGGTKLEIK", "notes": "Murine hybridoma antibody"}, "B2": {"name": "monoclonal antibody 368.1 (antibody, V domains shown)", "VH": "EVQLQQSGPELVRTGASVKISCKASGYSFTGFYMHWVKQSLGKSLEWIGYVSCYTGATTYTQKFKGKATFTVDTSSSTAYMQLNSLTSEDSAVYYCAREGDYYSMDFWGQGTSVTVSS", "VL": "DVVMTQTPLSLPVSLGDQASISCRSSQSLERTNGNTYLHWYLQKPGQSPKLLIYKVSSRFSGVPDRFSGSGSGTDFTLKISRVEAEDLGIYFCSQTTHGPPTCGGGTKLEIK", "notes": "Murine hybridoma antibody"}, "B3": {"name": "monoclonal antibody 501.1 (antibody, V domains shown)", "VH": "QIQLVQSGPELKKPGETVQISCKASGYIFTDYGMNWVKQAPGKGLKWMGCINTYTGETIYSDDFRGRFAISLETSASTAFIQINNLKNEDAATYFCARGNYRDAIDYWGQGTSVTVSS", "VL": "DIKMTQSPSSIYASLGERVTITCKASQDIKSYLSWYQQKPWKSPKTLIYYATTLADGVPSRFSGSGSGQDYSLIINSLESDDIATYFCLHHDESPFTFGSGTKLEI", "notes": "Murine hybridoma antibody"}},
  "data": [
    {"molecular_target": "T1, O772P 3-repeat TM on transfected NIH/3T3 cells (human)", "T1 construct": "also called NIH/3T3 O772P 3-repeat", "T1 chain": "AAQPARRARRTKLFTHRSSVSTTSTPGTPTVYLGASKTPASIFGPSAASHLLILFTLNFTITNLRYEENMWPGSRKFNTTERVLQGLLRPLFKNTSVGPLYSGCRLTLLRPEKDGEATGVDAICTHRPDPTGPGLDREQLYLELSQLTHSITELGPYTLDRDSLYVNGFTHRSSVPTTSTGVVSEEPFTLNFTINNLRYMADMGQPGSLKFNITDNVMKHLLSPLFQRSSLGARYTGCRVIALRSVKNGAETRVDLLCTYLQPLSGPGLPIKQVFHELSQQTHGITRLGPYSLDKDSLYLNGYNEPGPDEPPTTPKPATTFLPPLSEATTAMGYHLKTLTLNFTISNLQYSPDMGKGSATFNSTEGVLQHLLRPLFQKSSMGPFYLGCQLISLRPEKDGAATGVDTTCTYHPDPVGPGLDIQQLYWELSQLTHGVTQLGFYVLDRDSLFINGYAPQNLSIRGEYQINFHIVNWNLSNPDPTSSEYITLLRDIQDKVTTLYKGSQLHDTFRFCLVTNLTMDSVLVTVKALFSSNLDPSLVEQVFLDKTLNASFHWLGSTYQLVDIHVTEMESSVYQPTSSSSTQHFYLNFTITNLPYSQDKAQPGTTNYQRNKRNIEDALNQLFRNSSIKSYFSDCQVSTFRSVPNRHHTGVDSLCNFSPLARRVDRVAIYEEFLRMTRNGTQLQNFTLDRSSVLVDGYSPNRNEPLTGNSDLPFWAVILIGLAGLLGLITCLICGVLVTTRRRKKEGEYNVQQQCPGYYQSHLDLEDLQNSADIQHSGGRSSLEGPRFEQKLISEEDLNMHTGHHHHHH", "test": "flow cytometry, NIH/3T3 cells expressing O772P 3-repeat TM; Ab 2 µg/ml", "units": {"% positive cells": "%"}, "values": [
      {"binder": "B1", "% positive cells": 83},
      {"binder": "B2", "% positive cells": 86},
      {"binder": "B3", "% positive cells": 89}
    ]},
    {"molecular_target": "T1, O772P 3-repeat TM on transfected …", "test": "flow cytometry, NIH/3T3 cells expressing O772P 3-repeat TM; Ab 0.5 µg/ml", "description": "Cells (OVCAR-3 (ATCC Accession No. HTB-161), SK-OV3 (ATCC Accession No. HTB-77), NIH/3T3 (ATCC Accession No. CRL-1658), and NIH/3T3 cells transfected with a sequence that expresses O772P 3-repeat protein (SEQ ID NO:2)) were removed from culture plates by digestion with trypsin (0.25%). The cells were counted and viability was assessed by trypan blue (0.2%) exclusion. Cells were then centrifuged (500×g, 5 min) and resuspended in FACS buffer (1×DPBS containing 1% BSA and 0.1% sodium azide) to a concentration between 5-10×10⁷ cells/ml. Cells were then distributed at a volume of 100 μL/well into 96-well round bottom plates and centrifuged at 500×g for 3 minutes. Antibody supernatant was removed by aspiration, and 50 μl hybridoma supernatants diluted to 1 μg/ml and 0.5 μg/μl in FACS buffer and was added to each well containing cells. Murine IgG1 kappa (Sigma, St. Louis, Mo.) (either 2.0, 1.0, 0.5, 0.1 μg/μl) was included as a negative control and OC125 and M11 (DAKO Corp, Carpinteria, Calif.) were included as positive controls. Plates were incubated for 30 minutes at 4° C. with rocking. Cells were subsequently washed 2 times with FACS buffer (200 μl/well), with centrifugation and buffer aspiration following each wash. Goat anti-mouse IgG (Fc)-biotin (Sigma, St. Louis, Mo.) was diluted 1:1000 in FACS buffer and 50 μl was added to each well containing cells. Plates were incubated 30 minutes at 4° C. with rocking. Cells were then washed with FACS buffer as above. Streptavidin-Alexa-Four 488 (Molecular Probes, Eugene, Oreg.) was diluted 1:1000 into FACS buffer and 50 μl was added to each well containing cells. Plates were then incubated 30 minutes at 4° C. with […]. Cells were then washed with FACS buffer, as above. Cells were then resuspended in 1 ml of FACS buffer and transferred to Falcon 2052 tubes and analyzed on a Becton-Dickinson Immunocytometry Systems FACSCalibur flow cytometer (San Jose, Calif.).", "units": {"% positive cells": "%"}, "values": [
      {"binder": "B1", "% positive cells": 63},
      {"binder": "B2", "% positive cells": 75},
      {"binder": "B3", "% positive cells": 85}
    ]},
    {"molecular_target": "T2, O772P 3-repeat recombinant protein (human)", "T2 construct": "Repeats are residues 14-452 of the entry", "T2 chain": "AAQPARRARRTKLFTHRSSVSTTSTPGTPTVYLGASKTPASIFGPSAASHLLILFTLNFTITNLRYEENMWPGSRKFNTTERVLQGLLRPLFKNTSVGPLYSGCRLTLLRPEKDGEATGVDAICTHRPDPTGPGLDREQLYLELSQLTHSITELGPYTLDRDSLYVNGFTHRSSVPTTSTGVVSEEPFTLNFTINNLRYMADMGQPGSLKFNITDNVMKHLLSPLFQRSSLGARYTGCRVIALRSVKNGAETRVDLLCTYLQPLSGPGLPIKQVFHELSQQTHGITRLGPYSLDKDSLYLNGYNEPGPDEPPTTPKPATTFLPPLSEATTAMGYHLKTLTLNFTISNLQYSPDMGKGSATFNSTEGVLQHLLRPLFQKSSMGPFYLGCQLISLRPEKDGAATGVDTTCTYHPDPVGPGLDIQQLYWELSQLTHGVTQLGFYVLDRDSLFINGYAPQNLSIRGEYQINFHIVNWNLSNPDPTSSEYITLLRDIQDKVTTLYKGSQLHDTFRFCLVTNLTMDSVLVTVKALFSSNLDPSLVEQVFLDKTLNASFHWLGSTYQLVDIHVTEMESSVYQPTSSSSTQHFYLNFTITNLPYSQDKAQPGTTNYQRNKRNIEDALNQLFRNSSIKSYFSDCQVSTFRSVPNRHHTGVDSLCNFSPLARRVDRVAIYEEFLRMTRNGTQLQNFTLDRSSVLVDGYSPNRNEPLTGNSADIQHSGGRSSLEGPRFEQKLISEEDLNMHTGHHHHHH", "test": "ELISA competition, plate-bound O772P 3-repeat; competitor soluble O772P 3-repeat", "description": "On the next day, the plates were washed with 200 μl 1×PBST (1× phosphate-buffered saline (PBS), 0.05% Tween 20) three times and blocked with 100 μl of 1×PBST containing 1% bovine serum albumin (BSA) for 2 hours at 37° C. […] After 1 hour incubation at 37° C., the plates were then washed with 1×PBST three times. For signal detection, 100 μl of HRP-conjugated sheep anti-mouse IgG (1:2000 dilution into 1×PBST+1% BSA, Amersham Biosciences) was added to each well and incubated for 1 hour at 37° C. The plates were washed again with 1×PBST three times. Finally, 100 μl¹ of a mixture of TMB substrate and H₂O₂ (1:1 ratio, KPL) was added into each well and the absorbance was measured at 405 nm with a plate reader (Molecular Devices Corp., Sunnyvale, Calif.). The assay was done in triplicate for each selected antibody and average values were calculated and presented. The percent inhibition compared to no competition was calculated for individual antibodies based on average values. Controls for blank and individual reagents were also included in each experiment.", "units": {"absorbance w/O772P 3-repeat competitor (10 x w/w excess)": "OD"}, "values": [
      {"binder": "B1", "absorbance w/O772P 3-repeat competitor (10 x w/w excess)": 0.071},
      {"binder": "B2", "absorbance w/O772P 3-repeat competitor (10 x w/w excess)": 0.915},
      {"binder": "B3", "absorbance w/O772P 3-repeat competitor (10 x w/w excess)": 0.065}
    ]}
  ]
}
